Tests used:
[1] = tested on: rats with pressure overload; assay: Pressure overload (abdominal aortic banding) cardiac hypertrophy: body and organ weights; type: in vivo, rat
Protocol: For in vivo testing it is common to induce pressure-overload cardiac hypertrophy by constriction of the abdominal aorta of test animals. In a typical protocol rats (e.g. male Wistar or Sprague-Dawley) are treated under anesthesia, and the abdominal aorta of each rat is narrowed down just below the diaphragm. Beznak M., Can. J. Biochem. Physiol. 33, 985–94 (1955). The aorta is exposed through a surgical incision, and a blunted needle is placed next to the vessel. The aorta is constricted with a ligature of wool thread around the needle, which is immediately removed and which reduces the lumen of the aorta to the diameter of the needle. This approach is described, for example, in Rossi et al., Am. Heart J. 124, 700–709 (1992) and O'Rourke and Reibel, P.S.E.M.B. 200, 95–100 (1992). A detailed description of the protocol used by the present inventors is disclosed in the examples hereinbelow.
Animal model of pressure overload The induction of pressure overload by partial ligation of the abdominal aorta in rats was as described previously. Kimura et al., Am. J. Physiol. 1989:256 (Heart Circ. Physiol. 25):H1006–H1-11; Batra et al., J. Cardiovasc. Pharmacol. 17(suppl. 2), S151–S153 (1991). In brief, rats were anesthesized with ketamine/xylazine as described above. A 3 cm midline incision was made in the abdominal wall. The abdominal aorta between the diaphragm and the renal artery was exposed and looped with 5–0 silk suture. The suture was tightened around a gauge 23 needle, and then the needle was withdrawn. Sham animals received the surgery without tightening the suture.
Experimental protocol in rats with pressure overload The rats with aortic banding randomly received subcutaneous injection of IFN-γ at 0.08 mg/k twice a day for one day before surgery and for 14 days after surgery. Sham animals were not treated. Thirteen days after treatment, a catheter was implanted into the right carotid artery under anesthesia as indicated above. One day after implantation, arterial pressure and HR were measured in conscious rats. The heart and other organs including the liver, kidney, and spleen were removed, weighed, and fixed in 10% buffered formalin for pathological studies. The left ventricle was quickly dissected and frozen with liquid nitrogen in some animals and stored at −80° C. for assessment of gene expression.
Statistical analyisis Results are expressed as mean±SEM. One way analysis of variance (ANOVA) was performed to assess differences in parameters between groups. Significant differences were then subjected to post hoc analysis using Newman-Keuls method; P<0.05 was considered significant.

[2] = tested on: left ventricle of male Sprague/Dawley (SD) rats; assay: Cardiac gene expression (real-time RT-PCR) in rats treated with fluprostenol and/or IFN-γ; type: in vivo, rat; conditions: SKA, SRCA, COL I, ANF; FIG. 6
Excerpt: FIGS. 6A–6D Bargraphs showing the effect of fluprostenol (FLUP) and IFN-γ on: A Skeletal actin (SKA); B Sarcoplasmic reticulum calcium ATPase (SRCA); C Collagen I (COL I); D Atrial natriuretic factor (ANF) expression. Expression levels are normalized to glyceraldehyde-3-phosphate dehydrogenase (GAPDH) message. VEH is vehicle. There were 7 animals per group and the data are presented as the mean±SEM. P<0.05 vs VEH group.
RNA preparation Total RNA was isolated using RNeasy Maxi Columns (Qïägen) according to the manufacturer's instructions.
RT-PCR Real-time RT-PCR (TaqMan) technology was used to compare the gene expression between the various treatment groups. An oligonucleotide probe containing a fluorescent reporter dye, […], at the 3′-end was designed to hybridize to the amplicon defined by two PCR primers. A 3′-blocking phosphate prevents extension of the probe. The reporter dye is released from the probe by the 5′ exonuclease activity of Taq polymerase during the extension phase of PCR reaction. […] The threshold cycle number (Ct), defined as the point where the reporter fluorescence reaches a value greater than 10 times the standard deviation of the baseline, is […] to the amount of amplicon produced from the sample. Since the fluorescence is detected during the exponential phase of the amplification, none of the reaction components are limiting. In each experiment, a control is analyzed that lacks the RNA template to monitor for contamination, and another control is included where the RT step is omitted to eliminate amplification of possible contaminating DNA as the source of the signal. Reactions are optimized to give the greatest fluorescence signal and smallest Ct by titration of magnesium and primer concentrations, and the product is run on an agarose gel to verify the presence of a single band at the predicted molecular weight. […]
Quantitation of the TaqMan results was performed as described by Heid et al., Genome Res. 6:986–994 (1996), with modifications. […]

[3] = pressure overload, IFN-γ 0.08 mg/kg s.c. twice a day, 1 day before and 14 days after surgery, mean ± SEM

Substance: IFN-γ: recombinant mouse IFN-γ (Genentech, Inc., South San Francisco, Calif., or Genzyme, Cambridge, Mass.)
- Effect on cardiac hypertrophy induced by pressure overload (heart, atrial, ventricular, left ventricular weights and ratios to BW) ([1]; aortic banding, IFN-γ vs vehicle, Table 2, FIGS. 7 and 8): significantly attenuated cardiac hypertrophy
- BWO, basal levels of body weight ([1]; pressure overload rats, before treatment, mean ± SEM): 279.0 ± 1.3 g
- AW, atrial weight [1, 3]: .046 ± .003 g
- AW/BW, atrial weight to body weight [1, 3]: .129 ± .007 g/kg
- BW, body weight post treatment [1, 3]: 355.5 ± 5.2 g
- KW, kidney weight [1, 3]: 1.349 ± .071 g
- KWBW [1, 3]: 3.776 ± .071 g/kg
- LW, liver weight [1, 3]: 13.96 ± .47 g
- LW/BW, liver weight to body weight [1, 3]: 38.94 ± .92 g/kg
- SW, spleen weight [1, 3]: 1.170 ± .053 g
- SW/BW, spleen weight to body weight [1, 3]: 3.261 ± .121 g/kg
- ΔBW, BW-BWO [1, 3]: 76.5 ± 4.7 g
- Inhibition of alterations in cardiac gene expression associated with fluprostenol induced hypertrophy [2]: inhibited all but the atrial natriuretic factor response

Source: patent US6989364B1, “Methods for treating cardiac hypertrophy by administering IFN-γ” (Genentech, Inc., priority 1998, dated 2006)
